Blank lines part the entries; values can stand above or below the binder they belong to.
Biological target: Recombinant human HER3-Fc chimera protein (Homo sapiens, UniProt P21860)
Assay: BLI

Sequence of Recombinant human HER3-Fc chimera protein (P21860 20-643, change not shown): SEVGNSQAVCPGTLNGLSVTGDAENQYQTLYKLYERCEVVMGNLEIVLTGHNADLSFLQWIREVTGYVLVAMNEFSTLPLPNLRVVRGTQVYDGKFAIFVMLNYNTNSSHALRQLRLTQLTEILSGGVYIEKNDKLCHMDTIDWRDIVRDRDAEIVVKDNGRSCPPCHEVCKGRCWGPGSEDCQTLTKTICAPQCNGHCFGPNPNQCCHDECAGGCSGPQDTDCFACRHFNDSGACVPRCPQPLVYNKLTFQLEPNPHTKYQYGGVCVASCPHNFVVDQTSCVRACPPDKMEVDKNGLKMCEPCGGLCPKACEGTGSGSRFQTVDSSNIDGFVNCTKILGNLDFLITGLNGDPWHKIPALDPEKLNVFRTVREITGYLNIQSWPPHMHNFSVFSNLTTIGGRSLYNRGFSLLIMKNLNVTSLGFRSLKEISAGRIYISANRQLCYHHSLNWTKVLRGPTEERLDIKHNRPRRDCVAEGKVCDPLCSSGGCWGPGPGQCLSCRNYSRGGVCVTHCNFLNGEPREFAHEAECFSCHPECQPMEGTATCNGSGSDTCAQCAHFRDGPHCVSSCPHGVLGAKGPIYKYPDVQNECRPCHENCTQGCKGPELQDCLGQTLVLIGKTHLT

Kd: 20 ± 1.4 nM
B1: anti-HER3 scFv (scFv, V domains shown)
VH: not shown
VL: DIQMTQSPSSLSASVGDRVTITCRASQGISNYLAWYQQKPGKAPKLLIYAASSLQSGVPSRFSGSRSGTDFTLTISSLQPEDFATYYCQQYGWLPLTFGQGTKVEIK

Kd: 29 ± 3.7 nM
B2: IRDye800CW-labeled anti-HER3 scFv (scFv, V domains shown)
VH: not shown
VL: B1 VL

Source: paper PMC6160764 (Theranostics, 2018)
